From publication PMC4838342 (Nucleic Acids Research, 2015)

Test system: MBP H3 116–135
Experiment: Pulldown of MBP H3 116–135 by (His)6-sNASP truncations
Type: binding
Conditions: (His)6-tagged sNASP truncations, SDS-PAGE, Coomassie, western blotting for MBP
Experimental: Protein was eluted in the same buffer with 250 mM imidazole, but without protease inhibitors. The (His)6 tag was cleaved overnight by TEV protease, whilst concomitantly dialysing to 100 mM sodium chloride, 20 mM Tris–HCl pH 8.0, 1 mM EDTA and 5 mM dithiothreitol. Cleaved protein was further purified by ion-exchange using a ResourceQ column (GE Healthcare) before gel filtration chromatography in 200 mM sodium chloride, 20 mM Hepes-KOH pH 7.6 and 1 mM EDTA using a 26/60 Superdex 200 column (GE Healthcare). The purified protein was concentrated and stored in aliquots at −80°C. Homologues, truncations and point mutants of sNASP were expressed and purified using the same method. MBP-H3 peptide fusions were expressed in bacteria and used as whole cell extracts (epitope mapping) or purified over a Dextrin Sepharose column (GE Healthcare) in one-step purification in 0.5 M sodium chloride, 20 mM Hepes-KOH pH 7.6, 1 mM EDTA and 5 mM dithiothreitol. Concentrated protein was dialysed against 200 mM sodium chloride, 20 mM Hepes-KOH, 1 mM EDTA and 5 mM dithiothreitol and stored in aliquots at −80°C.
Mutations were made in the MBP H3 116–135 construct using a mixture of site-direct mutagenesis and oligo ligation. Whole cell extracts were prepared from bacteria and used as inputs for the pulldown experiments with (His)6-sNASP pre-bound to Nickel-NTA beads (GE Healthcare).
A BsNASP mutantsH3 peptide […]
200 A260 M Elution volume (mL) […]
construct used for NMR (A) Various truncations of (His)6-sNASP were tested for their ability to pull down MBP -H3 116-135 ( W T ) or a scrambled peptide (Sc). […]
separated by SDS-PAGE and stained with Coomassie. […]
western blotting for MBP was also carried out. (B) Domain diagrams of truncations shown in A with TPR motifs in green, the acidic loop region in yellow and the predicted capping region in grey. A summar y of the interaction with MBP-H3 116-135 is shown on the right hand side.
Binding Protein; CR, capping region; TPR, tetratricopeptide repeat; cTPR, contiguous TPR; mcTPR, minimum contiguous […]

| Molecule | ability to bind / pull down MBP H3 116–135 | ability to bind / pull down MBP H3 116–135 (listed as Truncating sNASP close to TPR4 at residue 300) | ability to bind / pull down MBP H3 116–135 (listed as truncation at residue 330) |
| --- | --- | --- | --- |
| N-300: sNASP truncated at residue 300 (protein, UniProt P49321 1-300, looked up, fragment, sNASP) MAMESTATAAVAAELVSADKIEDVPAPSTSADKVESLDVDSEAKKLLGLGQKHLVMGDIPAAVNAFQEAASLLGKKYGETANECGEAFFFYGKSLLELARMENGVLGNALEGVHVEEEEGEKTEDESLVENNDNIDEEAREELREQVYDAMGEKEEAKKTEDKSLAKPETDKEQDSEMEKGGREDMDISKSAEEPQEKVDLTLDWLTETSEEAKGGAAPEGPNEAEVTSGKPEQEVPDAEEEKSVSGTDVQEECREKGGQEKQGEVIVSIEEKPKEVSEEQPVVTLEKQGTAVEVEAESL | incapable of binding H3 | loss of interaction | – |
| N-330: sNASP truncated at residue 330 (protein, UniProt P49321 1-330, looked up, fragment, sNASP) MAMESTATAAVAAELVSADKIEDVPAPSTSADKVESLDVDSEAKKLLGLGQKHLVMGDIPAAVNAFQEAASLLGKKYGETANECGEAFFFYGKSLLELARMENGVLGNALEGVHVEEEEGEKTEDESLVENNDNIDEEAREELREQVYDAMGEKEEAKKTEDKSLAKPETDKEQDSEMEKGGREDMDISKSAEEPQEKVDLTLDWLTETSEEAKGGAAPEGPNEAEVTSGKPEQEVPDAEEEKSVSGTDVQEECREKGGQEKQGEVIVSIEEKPKEVSEEQPVVTLEKQGTAVEVEAESLDPTVKPVDVGGDEPEEKVVTSENEAGKAVL | binds the H3 C-terminal peptide with affinity similar to the full length | – | retained the interaction |
